Experimental data published in paper PMC6367345 (Scientific Reports, 2019).

Key:
[1] = molecular target: MEDI-579 Fab (human); assay: SPR; BIAcore T100; antibody (MEDI-579 Fab) amine-coupled to a CM3 sensorchip at about 500 RU; serial dilution of PAI-1 between 6.25 nM and 25 pM in HBS-EP+ passed over the surface
[2] = molecular target: human plasminogen activator inhibitor-1 (PAI-1), active (native) form (Homo sapiens, UniProt P05121, glycosylated (SPR preparation))
[3] = molecular target: T1, rat PAI-1 (Rattus norvegicus, UniProt P20961); assay: SPR; BIAcore T100; antibody (MEDI-579 Fab) amine-coupled to a CM3 sensorchip at about 500 RU; serial dilution of PAI-1 between 6.25 nM and 25 pM in HBS-EP+ passed over the surface; settings: both partners purified
T1 construct: source: bought: Molecular Innovations (SPR)
T1 sequence (P20961 24-402): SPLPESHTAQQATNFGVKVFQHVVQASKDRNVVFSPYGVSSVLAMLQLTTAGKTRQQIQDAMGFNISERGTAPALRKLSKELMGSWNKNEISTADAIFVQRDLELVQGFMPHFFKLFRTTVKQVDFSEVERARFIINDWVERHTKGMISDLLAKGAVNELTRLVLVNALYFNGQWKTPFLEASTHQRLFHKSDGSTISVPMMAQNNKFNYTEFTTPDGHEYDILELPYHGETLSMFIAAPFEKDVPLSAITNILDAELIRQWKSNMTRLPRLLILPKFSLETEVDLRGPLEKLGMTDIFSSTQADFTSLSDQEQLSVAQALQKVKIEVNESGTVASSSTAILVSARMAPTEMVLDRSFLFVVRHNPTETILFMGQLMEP

human plasminogen activator inhibitor-1 (PAI-1), active (native) form (Homo sapiens, UniProt P05121, glycosylated (SPR preparation)), sequence (P05121 24-402): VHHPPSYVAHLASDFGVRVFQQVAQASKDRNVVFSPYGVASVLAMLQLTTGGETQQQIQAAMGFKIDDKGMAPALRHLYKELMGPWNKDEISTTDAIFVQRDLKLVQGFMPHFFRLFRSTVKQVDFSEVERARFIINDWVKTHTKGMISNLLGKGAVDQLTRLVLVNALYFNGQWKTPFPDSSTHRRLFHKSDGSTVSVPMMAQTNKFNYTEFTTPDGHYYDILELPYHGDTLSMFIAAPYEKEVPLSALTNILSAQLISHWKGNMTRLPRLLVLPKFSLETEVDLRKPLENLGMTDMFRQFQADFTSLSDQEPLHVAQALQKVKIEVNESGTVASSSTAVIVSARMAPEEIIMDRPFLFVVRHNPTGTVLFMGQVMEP

human plasminogen activator inhibitor-1 (PAI-1), active (native) form (from UniProt P05121 24-402) (natural protein)
Kd [1]: 0.006 nM
koff [1]: 4.18e-05 s⁻¹
kon [1]: 7.02e+06 M⁻¹ s⁻¹

B1: Parent (antibody, V domains shown)
VH: QVQLQQSGAEVKKPGSSVKVSCKASGGTFSSYAISWVRQAPGQGLEWMGGIIPIFDTANYAQKFQGRVTITADESTSTAYMELSSLRSEDTAVYYCAREKRQWLEGHFDYWGRGTLVTVSS
VL: DIQMTQSPSFLSASIGDRVTITCRASEGIYHWLAWYQQKPGKAPKLLIYKASSLASGAPSRFSGSGSGTDFTLTISSLQPDDFATYYCQQYSNYPLTFGGGTKLEIK
binding result [2]: binds

B2: MEDI-579 Fab (Fab, V domains shown)
VH: QVQLVQSGAEVKKPGSSVKVSCKASGGTFSSYAISWVRQAPGQGLEWMGGIIPTFGTANYAQKFQGRVTITADESTSTAYMELSSLRSEDTAVYYCARERRQWLEGHFDYWGRGTLVTVSS
VL: DIQMTQSPSTLSASVGDRVTITCRASEGIYHNLAWYQQKPGKAPKLLIYKASSLASGVPSRFSGSRSGTEFTLTISSLQPDDFATYYCQQYSNYPLTFGGGTKVEIK
notes: heavy chain of the Fab; closest germline IGHV1-69*12; light chain of the Fab; closest germline IGKV1-5*03; The Fab for crystallisation was made by papain digestion of the IgG1
Kd [3]: 0.105 nM
koff [3]: 0.000797 s⁻¹
kon [3]: 7.64e+06 M⁻¹ s⁻¹
